This data set concerns the molecule itself. The data set is described as follows: SEC + other: sucrose gradient sedimentation.

B1: FLAG-tagged Stu1 (natural protein, S. cerevisiae, UniProt P38198 1-1513, looked up)
chain: MSSFNNETNNNSNTNTHPDDSFPLYTVFKDESVPIEEKMALLTRFKGHVKKELVNESSIQAYFAALLFISGHYAYRSYPRLIFLSHSSLCYLIKRVAMQSPVQFNDTLVEQLLNHLIFELPNEKKFWLASIKAIEAIYLVNPSKIQAILANFLRRPSENQNGDYLNRIKSTLLTIDELIQINEKNNSNHLQLLRFFMLSFTNLLNNNLNEHANDDNNNVIIELIFDIMYKYLKMDDENSQDLIDGFINDLEVEKFKQKFISLAKSQDQHGSQEDKSTLFDEEYEFQLLLAEAKLPQLSNNLSSKDPAMKKNYESLNQLQQDLENLLAPFQSVKETEQNWKLRQSNIIELDNIISGNIPKDNPEEFVTVIKEVQLIELISRATSSLRTTLSLTALLFLKRLIHILNDQLPLSILDQIFVIFKNLLSSTKKISSQTAFHCLITLIIDINHFHNKLFQLSFLLINEKTVTPRFCSAILLRSFLIKFNDSNLSLNNSNTTSPTSKLENNIIYIEEWLKKGISDSQTTVREAMRLTFWYFYKCYPTNAKRLLSSSFSPQLKKATELAIPAHLNINYQVSRVSSTASASSATSRLYSHSSNNSSRKTSLLEQKRNYPSYAQPTQSSSTSLLNAPAVTAGGSVIASKLSNKLKTNLRSTSEYSSKENEKRARHHDSMNSVSNSNTKDNNNVTKRKVSAPPSSTAATKVSENYTNFDDFPSNQIDLTDELSNSYSNPLIKKYMDKNDVSMSSSPISLKGSNKLGEYETLYKKFNDASFPAQIKDALQYLQKELLLTSQQSSSAPKFEFPMIMKKLRQIMIKSPNDFKPFLSIEKFTNGVPLNYLIELYSINSFDYAEILKNRMNPEKPYELTNLIITIADLFNFLNANNCPNDFKLYYMKYKTTFFNYNFKLLLEIFRNLNIKHDNTLRSGTNDLMPKISMILFQIYGKEFDYTCYFNLIFEIYKFDNNRFNKLLADFDIVSTKMKICHELEKKDANFKVEDIISRESSVSFTPIDNKKSEGDEESDDAVDENDVKKCMEMTMINPFKNLETDKTLELKNNVGKRTSSTDSVVIHDDNDKDKKLSEMTKIVSVYQLDQPNPAKEEDDIDMENSQKSDLNLSEIFQNSGENTERKLKDDNEPTVKFSTDPPKIINEPEKLIGNGNENEKPDLETMSPIKINGDENMGQKQRITVKRERDVALTEQDINSKKMKLVNNKKSEKMHLLIMDNFPRDSLTVYEISHLLMVDSNGNTLMDFDVYFNHMSKAINRIKSGSFTMKHINYLIEPLITCFQNQKMTDWLTNENGFDELLDVAIMLLKSTDDTPSIPSKISSKSIILVHCLLVWKKFLNTLSENADDDGVSVRMCFEEVWEQILLMLNKFSDYGNEIYKLAQEFRDSLMLSHFFKKHSATRILSMLVTEIQPDTAGVKETFLIETLWKMLQSPTICQQFKKSNISEIIQTMSYFIMGTDNTSWNFTSAVVLARCLRVLQTTPDYTEQETERLFDCLPKNVFKMIMFIASNE
Turning to B1, the stoichiometry N (as a rule, the number of molecules, sites or subunits per partner or assembly) worked out at 2.

(Values after publication PMC4033772 (The Journal of Cell Biology, 2014).)
